From patent publication US20250320305A1 come the findings set out here.

The target of experiment [1] is human CD40 expressed on cells (human) (UniProt P25942). Nature of the experiment: flow cytometry, primary human B cells. (Flow cytometry measures light scatter and fluorescence of single cells or particles in a stream.)
The target in experiment [2] is human CD40 extracellular domain with C-terminal His-AviTag (human) (UniProt P25942). The experiment can be described thus: SPR, antibody captured, CD40 ECD analyte. A general note: Surface plasmon resonance follows binding to a sensor surface in real time, without labels.
Experiment [3] concerns the target human CD40 expressed on cells (human) (UniProt P25942). The experiment can be described thus: flow cytometry, Raji cells.
The target of experiment [4] is biotinylated recombinant human FAP (human) (UniProt Q12884). Nature of the experiment: SPR (Biacore).
For experiment [5] the target is unchanged. Nature of the experiment: SPR (Biacore), biotinylated huFAP on CAPture chip, Fab analyte.

B1: P1AD4470, anti-CD40 control antibody (CD40 IgG1) (antibody, from a related filing, V domains shown)
VH: EVQLVESGGGLVQPGGSLRLSCAASGYSFTGYYIHWVRQAPGKGLEWVARVIPNAGGTSYNQKFKGRFTLSVDNSKNTAYLQMNSLRAEDTAVYYCAREGIYWWGQGTLVTVSS
VL: DIQMTQSPSSLSASVGDRVTITCRSSQSLVHSNGNTFLHWYQQKPGKAPKLLIYTVSNRFSGVPSRFSGSGSGTDFTLTISSLQPEDFATYFCSQTTHVPWTFGQGTKVEIKR
For B1, the EC50 – broadly, the concentration that produces a half-maximal response – in experiment [1] turned out to be 333 pM. Also, in experiment [2], the Kd (usually the free concentration of one partner at which half of the binding sites on the other are occupied at equilibrium, for simple one-to-one binding) is 4600 pM; the koff (as a rule, the rate constant with which the complex falls apart) was 0.00781 s⁻¹; the kon (as a rule, a measure of how fast the partners come together) was found to be 1.69e+06 M⁻¹ s⁻¹. In experiment [3], this molecule came in with an EC50 of 0.09 µg/mL.

B2: 4B9_Fab (Fab, from a related filing, V domains shown)
VH: EVQLLESGGGLVQPGGSLRLSCAASGFTFSSYAMSWVRQAPGKGLEWVSAIIGSGASTYYADSVKGRFTISRDNSKNTLYLQMNSLRAEDTAVYYCAKGWFGGFNYWGQGTLVTVSS
VL: EIVLTQSPGTLSLSPGERATLSCRASQSVTSSYLAWYQQKPGQAPRLLINVGSRRATGIPDRFSGSGSGTDFTLTISRLEPEDFAVYYCQQGIMLPPTFGQGTKVEIK
B2: in experiment [4], the Kd was 279 pM, the T ½ was determined as 55 min, the koff is 0.000208 s⁻¹ and the kon came out at 747000 M⁻¹ s⁻¹. In experiment [5], the Kd was 430 pM, the koff stood at 0.00078 s⁻¹ and the kon was found to be 1.82e+06 M⁻¹ s⁻¹.
